Experimental data: the supplement of paper PMC12042874
± gives the uncertainty stated by the source.

Assay: amyloid nucleation score (Sup35N fusion, yeast selection) (log enrichment); library NNK1; higher = more nucleation; inactive = no reads after selection
In short: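 The nucleation score is the DiMSum log enrichment of output over input reads, centred on the mode score of non-aggregating sequences. Only sequences with 100 or more input reads were scored, using Illumina sequencing of input and output plasmid inserts. Psi-negative yeast expressing Sup35N fused to peptides of 20 random codons were induced 24 hours with 100 μM copper sulfate and grown 7 days at 30°C on medium lacking adenine and uracil.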

Row | Substance | amyloid nucleation score
1 | MNPTFILRTGSRGGDYWS | 0.206 ± 0.52
2 | ELKTFTDKIGG | inactive
3 | RTLGDSNGNNVGLQVVPKCL | -0.108 ± 0.31
4 | RICKGIAGKSENCNTLYNSS | inactive
5 | AIFKSITDPVLWSGLF | 0.562 ± 0.97
6 | FGTLGK | 1.88 ± 0.38
7 | KFFFKSSNDVIKGVHNRTIR | -0.404 ± 0.49
8 | GWFAR | -0.191 ± 0.57
9 | CRAGLVMSGWCRWFAQWMDS | -0.551 ± 0.59
10 | PLELPVVFIMSDFSFWRRAQ | 0.555 ± 0.53
11 | RSMWICLWACYNLMVIRWPG | -0.446 ± 0.54
12 | SCWNSCNKMSF | 2.87 ± 0.24
13 | CGPELNESQG | -0.485 ± 0.67
14 | SYGLWHMAM | -0.232 ± 0.54
15 | VCKGSHWFIYLRNGFKSPSV | 1.46 ± 0.65
16 | SLGLFKIIRKPYHCSAPSQA | 0.551 ± 0.47
17 | FCFMWGYMVRVIV | inactive
18 | SFKRYRRYRSKRVRRIGRGR | 0.677 ± 0.52
19 | QSSYVLCHFILE | -0.219 ± 1.2
20 | VAATDWVGNHKS | 1.28 ± 0.55
21 | IDFKGTKKLLSDRAPVGDST | 0.549 ± 1
22 | VQADFFCSAPGHCIWVNGMR | 1.73 ± 0.31
23 | QANVDCNVHPVTRML | 0.085 ± 0.46
24 | EMTRLLNSCIKYQYSRQRYA | -0.97 ± 1.2
25 | AGSDGQGDGEQWRNHLRPIA | -0.294 ± 0.64

Row | Substance | amyloid nucleation score
26 | GTFALIN | -1.2 ± 0.68
27 | RARCFHSSLVVRLLRQTAER | 0.192 ± 1
28 | WSCTSCFNYGLF | 7.178 ± 0.052
29 | NVDFTSYMLDMM | 0.042 ± 0.41
30 | HSSDLRAFLTDTFSRFYRIG | 0.911 ± 0.8
31 | TCIWDKPVSSGL | -0.543 ± 1
32 | LFREQW | 0.228 ± 0.85
33 | QLELWVSLRCISWLQILRIL | 1.06 ± 0.53
34 | LWLTPTQCMTHNFPLLTPRR | -0.354 ± 0.47
35 | TTSVV | -0.174 ± 1.2
36 | NTTATLMGHTQPIYSIYSVF | 1.11 ± 0.94
37 | GKSLLKSYCIRMPLFSRNTL | inactive
38 | YAVRYFETVVLQGIEVIPES | 0.205 ± 0.6
39 | DVGCLCNNMHMILILLNYRV | 0.446 ± 0.44
40 | ICYIPADFVKPAMVNLYLAM | 2.99 ± 0.11
41 | LALFIDWQ | 1.53 ± 0.53
42 | TIWCVD | 1.01 ± 0.28
43 | FTVVWGHQVYVMTSPFSSAG | 5.76 ± 0.062
44 | VGCKP | -0.24 ± 0.75
45 | ISCKWYNHISSRLNFMWHAK | 0.394 ± 0.88
46 | FVLQWRNIRVVDLRMRPYPK | 0.508 ± 0.28
47 | KVAVN | 0.453 ± 0.42
48 | NNFSCMDHILSMVKLWDVFG | -0.847 ± 0.59
49 | GAFAFQKL | 0.358 ± 1.1
50 | SGHNSLGFISGIAINIFYRE | 7.537 ± 0.069

Row | Substance | amyloid nucleation score
51 | NRRCGGASSIRTGNRIWDDW | 2.22 ± 0.23
52 | NFGAQRYHSRLLL | -0.223 ± 0.59
53 | MWEALW | 0.601 ± 0.54
54 | FNSRGSVSNL | 0.821 ± 1.1
55 | VGTDLNETVG | -0.646 ± 1.5
56 | GARYVLYMLT | -0.85 ± 0.88
57 | FIFPAHCSLRSIDFSQGYIR | -0.321 ± 0.36
58 | KNVSLRYILAYCRHYKLTHG | 0.19 ± 1.2
59 | TEYISG | -0.026 ± 0.97
60 | VGRLGVEG | -0.305 ± 0.25
61 | RKESDNDFSTCVTWQNRHPD | 0.529 ± 0.74
62 | VWYWLSNNLDVW | 0.809 ± 0.98
63 | HDREDWGDQSWYFILAWIFK | -0.745 ± 0.44
64 | LSRPVDNSCLESMRRVDWTH | -0.444 ± 1.2
65 | CEVSIVSLARYVGREDLFDR | 0.213 ± 0.65
66 | KDVLVRFMYLG | -0.21 ± 0.68
67 | FYIVIDYFRNCAG | 0.005 ± 0.38
68 | DSQMYTMH | -0.054 ± 0.71
69 | LEASSIISSRTPG | -0.93 ± 2.4
70 | MRYIKSVVSSVCSYNLPLRA | 0.525 ± 0.44
71 | RRDDVCELLVIP | 0.351 ± 0.51
72 | YWKSIRPILIEC | inactive
73 | FNLRTIARDL | -1.68 ± 0.97
74 | FHTLDVCPGRVLNLYNVKVW | -0.427 ± 1
75 | PFGVVGDVFQSTLC | 0.371 ± 0.84

Row | Substance | amyloid nucleation score
76 | EVFRRSLGTTDAVGPKHDAQ | 2.39 ± 0.17
77 | GKPLTTVVAIIF | 3.56 ± 0.11
78 | FHIQEANIFRE | -0.17 ± 0.24
79 | EIKISSDGTVSMARGRWCQG | 6.615 ± 0.05
80 | LGPVLFKLLRETCAQSYKVM | -0.005 ± 0.67
81 | NFFVDDSDRGQYKFDPFCCG | inactive
82 | GGFWPICYWNLRASEPLQDS | 0.173 ± 0.63
83 | ERRDVRIYKSCGLGHVFYEG | 4.91 ± 0.056
84 | MRAFGVNGTVQRWWGSCSRF | 0.766 ± 0.46
85 | ILFFDVSSQGRTEDKVRNLG | 0.088 ± 0.69
86 | HPRMCWVPVISIIPLLSVMA | 0.185 ± 0.41
87 | IFYSLQLVTARSTEVMGDTP | 1.1 ± 0.88
88 | KTLDLHISFPQDKLFR | -0.382 ± 0.45
89 | HSNYFPKSLYVLGLFCSTVS | 6.22 ± 0.065
90 | TFVSLATTDFPPNFSLKLFV | -0.579 ± 0.49
91 | YVIKKWTTCVLDFWHHFSFR | 0.583 ± 0.48
92 | DAWGTVRYSIGFKGVVAMTS | 0.149 ± 0.29
93 | FRGFR | -0.235 ± 0.4
94 | DSCRWGFLRVRVLGFSSVWY | -0.28 ± 0.49
95 | TFHWMKDAALSQSSVKRTMA | 0.359 ± 0.59
96 | YCMCCNNRVLMVYHCTQVSA | inactive
97 | LSILSGWNTE | 0.146 ± 0.32
98 | SRTHRDGTCYHSGTVKVHLP | -1.64 ± 2.7
99 | DWNVQGQWFHQC | 0.677 ± 0.72
100 | FRSFNGTCSGVQWSVFVIWV | -0.18 ± 0.77

Row | Substance | amyloid nucleation score
101 | DSWRSIIGFRERVSTMQYLI | 0.96 ± 0.66
102 | RGCMAQDSNLYKHVSARTGD | -0.179 ± 1.6
103 | LGTLMSPPTRTDFMHPRYRV | 1.51 ± 0.48
104 | KVLFLTCYTTPSLNNLVFRC | -0.069 ± 0.28
105 | FVKRF | 0.073 ± 0.4
106 | SFEFGSSGRICVCIMFPVER | 1.08 ± 0.56
107 | NFLCFGFFRWTVPDWAQFYV | 3.76 ± 0.12
108 | VNRFANVLRR | 0.234 ± 0.29
109 | FCELELMVHVVMPFKAVS | 0.831 ± 0.77
110 | YKIGLT | -0.227 ± 0.48
111 | HDNISLG | 3.39 ± 0.12
112 | IYRLDTI | -0.864 ± 0.75
113 | TAIIPPHFLASDSFRWSCAC | 0.008 ± 0.34
114 | ICTSSTKGRLCRSCPLASRL | 0.205 ± 0.38
115 | VILWRSRIASRCPTLM | -0.415 ± 1.4
116 | CVDRNG | -0.362 ± 0.39
117 | VWVHD | 0.257 ± 0.26
118 | ENHAKLHDICGASGLSREGG | 0.592 ± 0.49
119 | LSSVNGVLGRIGHLVAPSSF | -0.066 ± 1
120 | DCLRILDGQYRRRIDRALRV | 0.09 ± 0.7
121 | NDHDGEFDD | 0.239 ± 0.57
122 | WRAMAFVYLVASWSVGIRGR | 0.07 ± 1
123 | SVSWYAMLRLSEIRDRCKSF | 0.278 ± 0.32
124 | SIQLGSFWSGCEICCDYPPA | -0.805 ± 0.67
125 | AGHSCQSTMTGCYTFHSYVW | -0.102 ± 0.49

Row | Substance | amyloid nucleation score
126 | WMNFWHLFSVFLLFSAICWF | -0.006 ± 0.61
127 | NTCTMCGWICAFLRPVFCVV | 0.745 ± 1.2
128 | VFTSAD | 0.093 ± 0.39
129 | KVCVLLSSCIYDNLHVR | 0.402 ± 1.4
130 | HLSALLANSNLNKM | -0.359 ± 0.52
131 | FKSYWGSTWRSNSWVGDMRG | -0.225 ± 0.46
132 | VTMNRIV | 0.501 ± 0.21
133 | FRLMPEYVATYMLSLRMCQC | -0.565 ± 1.2
134 | KCTLYLQFNIEHGCAIFEDK | 2.06 ± 0.64
135 | MTHAFLRWSYLFRNIWMHVF | 0.349 ± 1.2
136 | VAVVLYAQTV | -0.376 ± 0.63
137 | KETLGIQ | 1.19 ± 0.52
138 | VGELYFIVWMDLLLVGWDGR | 0.897 ± 0.53
139 | VKRHNLLCWRFMDFTINLGG | 4.01 ± 0.13
140 | ASYGIIVSSLFFNGRGCHWS | 3.81 ± 0.096
141 | GVWLVSDRKVADVRSNYCFD | -2.18 ± 2.7
142 | AGFSTHSSGCVGECVGQRT | 0.32 ± 0.69
143 | WSLWLRRDFSR | 0.76 ± 0.61
144 | YGLSSGFLYADLEDVPALLW | 0.681 ± 0.45
145 | TSSEFDLLNGQFANGYVLVH | 0.546 ± 0.5
146 | SYLFWDRCYSA | -0.247 ± 0.4
147 | GFGSRRYFRAVLSCPR | 0.852 ± 0.93
148 | YWSLVVAAWRMENGWHGFLL | 0.059 ± 0.39
149 | YLHSSGGYNFSVRVSKYNCE | -0.689 ± 0.61
150 | GTTVPGFCITKSVKTMGRNQ | 0.643 ± 0.39

Row | Substance | amyloid nucleation score
151 | CFRISARFFRVQFHGVVCIW | 1.51 ± 0.25
152 | FVVVHRSASGPEIQFLKGGR | -0.684 ± 0.4
153 | PGRTLIVFFCVVVCQCEDNR | 1.44 ± 0.5
154 | NDDNCSSVSWWNKWCSTR | 1.44 ± 0.41
155 | AVFIGCVNAGS | 0.621 ± 0.39
156 | HTFHVL | inactive
157 | FGKGNEGTIGNI | -0.22 ± 0.76
158 | QEGRSFRGYTMVKYVFISRY | 1.38 ± 0.5
159 | YSWILKKWVFVYSLFTSGHM | 0.278 ± 0.55
160 | MCNVGTVRAYSLIQGGIRQC | 0.373 ± 0.34
161 | EGQTGLLVWYGSHSVRLGNF | -0.957 ± 2.4
162 | ACPVGTRFTVATTFRRMLCE | 0.312 ± 0.47
163 | AHTSYYTMSTSRTADGVKIS | 0.028 ± 0.31
164 | YSVDQYSNTMRLTLHMLVFV | 0.455 ± 0.79
165 | CTRVTSRAM | -0.757 ± 0.9
166 | IWAHVPTSRYEILVVFSG | 0.253 ± 0.45
167 | LWVFRCARLKVWQPRKGWGQ | 0.844 ± 0.48
168 | KNGRWAWFTSRAHCFGYNFT | -1.14 ± 0.82
169 | HKFVRIDGEN | 1.54 ± 0.84
170 | YYLSLMYSTLYRTKIFWARE | -0.077 ± 0.79
171 | VNEFLRFFLWSHLQWMI | -0.045 ± 0.28
172 | DRFSYLEHDSRDRRRVE | inactive
173 | KLWPSMSFLNCLWCIRERQL | 4.48 ± 0.081
174 | GLSWYCGHLAKR | 1.48 ± 0.49
175 | CIRVWCLILSRSWGFTPANC | 1.18 ± 0.9
